# Assay results taken from patent US20210379147A1, “METHOD AND SYSTEM FOR TREATING CANCER UTILIZING TINAGL1” (The Trustees of Princeton University, priority 2018, published 2021).
# B1: Tinagl1: Tubulointerstitial nephritis antigen like 1, secreted extracellular protein; in IP experiments expressed with C-terminal HA tag (protein, listed as Homo sapiens)
# chain: MWRCPLGLLLLLPLAGHLALGAQQGRGRRELAPGLHLRGIRDAGGRYCQEQDLCCRGRADDCALPYLGAICYCDLFCNRTVSDCCPDFWDFCLGVPPPFPPIQGCMHGGRIYPVLGTYWDNCNRCTCQENRQWQCDQEPCLVDPDMIKAINQGNYGWQAGNHSAFWGMTLDEGIRYRLGTIRPSSSVMNMHEIYTVLNPGEVLPTAFEASEKWPNLIHEPLDQGNCAGSWAFSTAAVASDRVSIHSLGHMTPVLSPQNLLSCDTHQQQGCRGGRLDGAWWFLRRRGVVSDHCYPFSGRERDEAGPAPPCMMHSRAMGRGKRQATAHCPNSYVNNNDIYQVTPVYRLGSNDKEIMKELMENGPVQALMEVHEDFFLYKGGIYSHTPVSLGRPERYRRHGTHSVKITGWGEETLPDGRTLKYWTAANSWGPAWGERGHFRIVRGVNECDIESFVLGVWGRVGMEDMGHH
# modifications: C-terminal HA tag in IP
# notes: Tubulointerstitial nephritis antigen like 1, secreted extracellular protein; in IP experiments expressed with C-terminal HA tag
# Legend:
# [1] = tested on: FAK; assay: FN- or EGF-dependent FAK phosphorylation (WB); type: cell-based
# Excerpt: For WB analysis, cells were collected and lysed with IP lysis buffer described above. After boiled with SDS laemmli buffer, the samples were resolved with SDS-PAGE gel and immunoblotted with standard protocols.
# FN is the major ligand for integrin α5β1 and αvβ1, and triggers integrin/FAK signal pathway after binding. FN was employed to evaluate the effects of Tinagl1 on the integrin/FAK pathway. […] Likewise, the activation of FAK by FN was attenuated in the cells overexpressing Tinagl1.
# [2] = tested on: FN interaction with integrin subunits β1, α5, and αv; assay: Competition IP between Tinagl1, FN and integrin subunits; type: binding
# Chain of FN interaction with integrin subunits β1, α5, and αv (as listed by the source): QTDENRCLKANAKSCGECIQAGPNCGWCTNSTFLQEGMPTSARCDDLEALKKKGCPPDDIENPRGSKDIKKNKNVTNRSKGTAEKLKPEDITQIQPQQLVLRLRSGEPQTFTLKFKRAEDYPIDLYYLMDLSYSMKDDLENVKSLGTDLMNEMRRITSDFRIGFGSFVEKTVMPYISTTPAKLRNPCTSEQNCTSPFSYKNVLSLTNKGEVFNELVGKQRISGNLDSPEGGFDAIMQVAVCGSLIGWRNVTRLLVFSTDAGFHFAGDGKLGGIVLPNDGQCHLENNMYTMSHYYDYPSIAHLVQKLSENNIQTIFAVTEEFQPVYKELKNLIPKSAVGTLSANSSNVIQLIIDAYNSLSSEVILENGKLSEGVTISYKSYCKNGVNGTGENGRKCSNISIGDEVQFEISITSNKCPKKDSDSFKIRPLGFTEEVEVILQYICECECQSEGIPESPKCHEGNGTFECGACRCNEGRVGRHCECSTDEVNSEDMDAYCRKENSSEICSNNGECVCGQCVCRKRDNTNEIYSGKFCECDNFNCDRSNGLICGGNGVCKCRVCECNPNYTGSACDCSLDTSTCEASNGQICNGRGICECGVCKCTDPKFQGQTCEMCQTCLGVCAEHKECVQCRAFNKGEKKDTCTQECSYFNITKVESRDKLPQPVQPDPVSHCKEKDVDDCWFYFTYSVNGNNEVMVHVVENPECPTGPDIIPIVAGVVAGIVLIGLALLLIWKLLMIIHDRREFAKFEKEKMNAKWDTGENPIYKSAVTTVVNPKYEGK
# [3] = biological target: FN (Homo sapiens, UniProt P02751); assay: IP of Tinagl1-HA with FN; type: binding; details: IP-Mass, IP/WB
# Description: FIG. 15B is an image of WB analyses where 5 μg of FN was added into the lysate of HEK293T cells expressing Tinagl1-HA, then the lysate was immunoprecipitated with indicated antibodies, followed by WB analysis.
# [4] = biological target: Integrin β1 (Homo sapiens, UniProt P05556); assay: Co-immunoprecipitation of Tinagl1 / Tinagl1 mutants with integrin β1 subunit; type: binding; details: LM2 cells with Tinagl1-HA stably expressed
# Chain of Integrin β1 (P05556 21-798): as the sequence (as listed by the source) above
# Chain of Integrin β1 (P08648 42-894 partner limits assumed): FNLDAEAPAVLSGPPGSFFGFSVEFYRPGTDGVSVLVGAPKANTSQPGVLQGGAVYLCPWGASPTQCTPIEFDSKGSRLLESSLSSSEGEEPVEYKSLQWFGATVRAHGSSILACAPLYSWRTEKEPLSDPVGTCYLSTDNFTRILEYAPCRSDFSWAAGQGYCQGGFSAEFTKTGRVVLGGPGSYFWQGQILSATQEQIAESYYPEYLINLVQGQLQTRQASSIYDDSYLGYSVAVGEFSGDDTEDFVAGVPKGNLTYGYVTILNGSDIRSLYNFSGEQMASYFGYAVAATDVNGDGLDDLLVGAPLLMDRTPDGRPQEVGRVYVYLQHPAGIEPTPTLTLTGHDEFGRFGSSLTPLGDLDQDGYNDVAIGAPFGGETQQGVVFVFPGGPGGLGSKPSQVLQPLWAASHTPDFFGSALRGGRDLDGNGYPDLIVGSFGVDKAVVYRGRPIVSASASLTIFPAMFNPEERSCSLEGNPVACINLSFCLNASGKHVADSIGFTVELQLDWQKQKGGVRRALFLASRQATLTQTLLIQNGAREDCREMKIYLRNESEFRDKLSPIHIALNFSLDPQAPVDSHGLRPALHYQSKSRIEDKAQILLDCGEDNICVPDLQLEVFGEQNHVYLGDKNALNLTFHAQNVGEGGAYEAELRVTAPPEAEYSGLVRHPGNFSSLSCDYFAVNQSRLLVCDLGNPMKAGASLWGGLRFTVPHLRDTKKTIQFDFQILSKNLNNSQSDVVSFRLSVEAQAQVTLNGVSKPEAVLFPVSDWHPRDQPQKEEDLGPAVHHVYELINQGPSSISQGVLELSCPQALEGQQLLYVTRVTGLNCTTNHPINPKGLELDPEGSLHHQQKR
# Chain of Integrin β1 (P08648 895-1049 partner limits assumed): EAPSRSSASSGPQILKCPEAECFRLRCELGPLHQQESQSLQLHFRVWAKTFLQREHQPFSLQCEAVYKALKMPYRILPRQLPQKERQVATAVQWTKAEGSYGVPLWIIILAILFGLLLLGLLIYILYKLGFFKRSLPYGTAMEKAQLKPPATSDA
# Description: (§1) The functional domains of the Tinagl1 protein were mapped against EGFR, Integrin β1, and Integrin α5, and the results can be seen in Table 1, below. Specifically, it can be seen that the signal peptide (11) and Somatomedin B domain (12) are required to interact with EGFR, Integrin, and Integrin.
# (§2) Immunoprecipitation (IP) and western blotting (WB) analysis. For an IP experiment, cells were collected in 1.5 ml EP tube when they reached to 100% confluency in 10 or 15 cm dish as indicated. 1 ml of IP lysis buffer (20 mM Tris pH7.4, 0.15 M NaCl, 1 mM EDTA, 1 mM EGTA, 1% Tx-100) with complete protease inhibitor cocktail (Roche, 14493900) was added and put on ice for 20 min. Meanwhile, culture media was 100× concentrated and mixed with the cell lysates. The samples were centrifuged, 100 μl of the supernatant was transferred to a new tube as input, and the rest was incubated with 2 μg of IgG, anti-HA, anti-Myc, anti-Integrin subunit β1, anti-Integrin subunit α5 or anti-EGFR (as indicated in each experiment) overnight at 4° C. (recombinant proteins may be added at this step as indicated in each experiment). 30 μL of protein A/G agarose beads (Santa Cruz, sc-2003) was then added in each sample for another 2 hours at 4° C. the next day. The beads were then washed for 5 times with IP lysis buffer. […] The IP samples were washed with PBS and analyzed with WB. […]
# [5] = biological target: T1, mutant integrin β1 subunit (β1-M) (Homo sapiens, UniProt P05556, DEL130-240); assay: IP of Tinagl1-HA with mutant integrin β1 subunit; type: binding; details: HEK293T cells
# T1 construct: host or cells: HEK293T
# T1 sequence (P05556 with tags, fused parts or gaps DEL130-240): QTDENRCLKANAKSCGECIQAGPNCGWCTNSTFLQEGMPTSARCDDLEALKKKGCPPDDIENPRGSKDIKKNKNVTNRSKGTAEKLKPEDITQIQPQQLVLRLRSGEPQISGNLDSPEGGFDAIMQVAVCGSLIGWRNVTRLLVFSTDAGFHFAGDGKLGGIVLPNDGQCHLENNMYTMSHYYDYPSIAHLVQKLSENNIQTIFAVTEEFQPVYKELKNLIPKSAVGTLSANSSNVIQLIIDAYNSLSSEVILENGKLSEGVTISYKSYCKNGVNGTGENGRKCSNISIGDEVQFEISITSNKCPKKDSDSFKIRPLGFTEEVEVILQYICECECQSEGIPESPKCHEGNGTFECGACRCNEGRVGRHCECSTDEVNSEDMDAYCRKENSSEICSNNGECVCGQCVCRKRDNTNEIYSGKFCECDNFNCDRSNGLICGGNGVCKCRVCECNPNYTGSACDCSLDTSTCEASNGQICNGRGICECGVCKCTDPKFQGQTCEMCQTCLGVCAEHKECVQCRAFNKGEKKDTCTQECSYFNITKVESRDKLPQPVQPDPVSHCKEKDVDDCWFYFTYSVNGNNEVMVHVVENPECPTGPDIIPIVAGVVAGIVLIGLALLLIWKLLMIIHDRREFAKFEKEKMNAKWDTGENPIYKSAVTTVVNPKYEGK
# [6] = biological target: T2, integrin av subunit (Homo sapiens, UniProt P05556+P06756); assay: Co-immunoprecipitation of Tinagl1 with integrin av subunit; type: binding; details: LM2 cells expressing Tinagl1-HA
# T2 construct: endogenous in cells; host or cells: LM2 cells stably expressing Tinagl1-HA
# T2 sequence (P06756 31-889 limits assumed): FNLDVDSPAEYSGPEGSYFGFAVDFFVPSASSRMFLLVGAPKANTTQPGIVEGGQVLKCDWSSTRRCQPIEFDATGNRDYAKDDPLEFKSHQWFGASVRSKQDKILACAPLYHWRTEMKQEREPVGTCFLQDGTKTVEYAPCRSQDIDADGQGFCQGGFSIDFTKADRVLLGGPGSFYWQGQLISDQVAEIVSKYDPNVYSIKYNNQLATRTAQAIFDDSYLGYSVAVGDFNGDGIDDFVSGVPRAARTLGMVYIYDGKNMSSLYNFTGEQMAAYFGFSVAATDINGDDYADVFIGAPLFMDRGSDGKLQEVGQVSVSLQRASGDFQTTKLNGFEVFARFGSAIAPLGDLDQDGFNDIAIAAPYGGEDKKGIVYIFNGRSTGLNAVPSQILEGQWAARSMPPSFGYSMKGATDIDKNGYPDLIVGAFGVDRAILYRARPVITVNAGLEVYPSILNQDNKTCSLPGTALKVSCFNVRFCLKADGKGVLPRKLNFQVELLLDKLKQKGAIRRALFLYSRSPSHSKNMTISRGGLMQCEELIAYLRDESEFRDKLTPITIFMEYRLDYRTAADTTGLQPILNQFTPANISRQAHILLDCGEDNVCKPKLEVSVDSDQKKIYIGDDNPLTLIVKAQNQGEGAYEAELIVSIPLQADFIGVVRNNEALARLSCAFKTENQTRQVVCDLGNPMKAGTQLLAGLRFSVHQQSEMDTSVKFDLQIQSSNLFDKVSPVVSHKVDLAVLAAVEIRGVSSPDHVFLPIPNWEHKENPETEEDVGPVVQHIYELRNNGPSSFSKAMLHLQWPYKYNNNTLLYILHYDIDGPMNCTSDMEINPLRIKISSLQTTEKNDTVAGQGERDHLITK
# T2 sequence (P06756 891-1048 limits assumed): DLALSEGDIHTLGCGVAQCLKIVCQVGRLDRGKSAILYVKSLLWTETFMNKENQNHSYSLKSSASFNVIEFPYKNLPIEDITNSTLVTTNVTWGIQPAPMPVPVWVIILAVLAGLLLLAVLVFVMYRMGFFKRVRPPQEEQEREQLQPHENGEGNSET
# T2 sequence (P05556 21-798): as the sequence (as listed by the source) above
# Description: FIGS. 9A and 9B FIGS. 8E and 8F are images of WB analyses where LM2 cells expressing Tinagl1-HA stably were lysed and IP with IgG or anti-HA antibodies, then the IP samples were subjected to WB analysis with indicated antibodies to detect the interaction with integrin α5 subunit (9A) and integrin av subunit (9B).
# as §2
# [7] = biological target: Integrin α5 (Homo sapiens, UniProt P05556+P08648); assay: Co-immunoprecipitation of Tinagl1 / Tinagl1 mutants with integrin α5 subunit; type: binding; details: LM2 cells expressing Tinagl1-HA
# Chain of Integrin α5 (P08648 42-894 limits assumed): as the sequence (P08648 42-894 partner limits assumed) above
# Chain of Integrin α5 (P08648 895-1049 limits assumed): as the sequence (P08648 895-1049 partner limits assumed) above
# Chain of Integrin α5 (P05556 21-798): as the sequence (as listed by the source) above
# Description: as §1, §2
# [8] = biological target: T3, EGF (Homo sapiens, UniProt P01133); assay: Co-immunoprecipitation of Tinagl1-HA with recombinant EGF; type: binding; details: 5 μg r-EGF added into lysate
# T3 construct: 5 μg of recombinant EGF (r-EGF) was added into the lysate
# T3 sequence (P01133 971-1023 limits assumed, species assumed): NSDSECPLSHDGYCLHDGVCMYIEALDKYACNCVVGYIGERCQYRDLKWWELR
# Description: FIG. 13A is an image of IP and WB assays where EK293T cells expressing Tinagl1-HA were lysed and 5 μg of recombinant EGF (r-EGF) was added into the lysate, which was then subjected to the assays.
# Tinagl1 inhibits EGFR and integrin/FAK signaling pathways with distinct mechanisms. The interaction between EGFR and EGF causes conformational changes in EGFR, leading to EGFR dimerization, phosphorylation, and activation. Previous studies identified an EGFR antagonist, MIF, which competes with EGF for binding to EGFR and subsequently blocks its activation. Whether Tinagl1 inhibits EGFR activation in a similar manner was tested. […] Whether Tinagl1 and EGF compete with each other to interact with EGFR was tested. […] As a positive control, r-Tinagl1 competed with expressed Tinagl1-HA to interact with EGFR.
# [9] = biological target: EGFR (Homo sapiens, UniProt P00533); assay: Co-immunoprecipitation of Tinagl1 / Tinagl1 mutants with EGFR; type: binding; details: LM2 cells with Tinagl1-HA stably expressed
# Description: as §1, §2
molecule,measurement,setting,value
B1,EGF-induced FAK phosphorylation (Tyr925),[1],blocks this specific effect of EGF on FAK activation
same,interaction of subunits α5 or av with FN,[2],did not compete
same,interaction of FN with integrin β1 subunit,"[2]; tested at 1, 2.5, and 5 μg",competitively reduced
same,interaction with FN,[3],interacted with FN
same,interaction with integrin β1 subunit (co-IP),[4],confirmed the interaction
same,interaction with mutant β1 subunit (deletion of aa 130-240),[5],cannot interact
same,interaction with integrin av subunit (co-IP),[6],strongly interacted
same,interaction with integrin α5 subunit (co-IP),[7],strongly interacted
same,interaction between Tinagl1 and EGF,[8],failed to detect any interaction
same,interaction with EGFR (co-IP),[9],confirmed the interaction
